According to article PMC5531254:

Columns and labels:
[1] = target: PIH1D1 (UniProt Q9NWS0); assay: GST pull-down with FLAG-purified MRE11; conditions: reference: FLAG MRE11 wild type
[2] = target: PIH1D1 (UniProt Q9NWS0); assay: anti-FLAG co-IP, MYC blot; conditions: reference: FLAG MRE11 wild type

## MRE11 (from UniProt P49959) M1 (S558A/S561A)
[1]; sites S558,S561
  binding against the reference: weaker
[2]; sites S558,S561
  binding against the reference: weaker

## MRE11 (from UniProt P49959) M3 (S688A/S689A)
[1]; sites S688,S689
  binding against the reference: weaker
[2]; sites S688,S689
  binding against the reference: weaker
